Test results reported in patent US20250145690A1 (US Dept. of Health and Human Services, published 2025).

Experiments:
Experiment in all cases: bead flow cytometry, AUC minus CD4
[1] = target: T1, HCoV-NL63 spike protein (Sino Biological 40604-V08B) (HCoV-NL63, UniProt Q6Q1S2 19-1296)
T1 sequence: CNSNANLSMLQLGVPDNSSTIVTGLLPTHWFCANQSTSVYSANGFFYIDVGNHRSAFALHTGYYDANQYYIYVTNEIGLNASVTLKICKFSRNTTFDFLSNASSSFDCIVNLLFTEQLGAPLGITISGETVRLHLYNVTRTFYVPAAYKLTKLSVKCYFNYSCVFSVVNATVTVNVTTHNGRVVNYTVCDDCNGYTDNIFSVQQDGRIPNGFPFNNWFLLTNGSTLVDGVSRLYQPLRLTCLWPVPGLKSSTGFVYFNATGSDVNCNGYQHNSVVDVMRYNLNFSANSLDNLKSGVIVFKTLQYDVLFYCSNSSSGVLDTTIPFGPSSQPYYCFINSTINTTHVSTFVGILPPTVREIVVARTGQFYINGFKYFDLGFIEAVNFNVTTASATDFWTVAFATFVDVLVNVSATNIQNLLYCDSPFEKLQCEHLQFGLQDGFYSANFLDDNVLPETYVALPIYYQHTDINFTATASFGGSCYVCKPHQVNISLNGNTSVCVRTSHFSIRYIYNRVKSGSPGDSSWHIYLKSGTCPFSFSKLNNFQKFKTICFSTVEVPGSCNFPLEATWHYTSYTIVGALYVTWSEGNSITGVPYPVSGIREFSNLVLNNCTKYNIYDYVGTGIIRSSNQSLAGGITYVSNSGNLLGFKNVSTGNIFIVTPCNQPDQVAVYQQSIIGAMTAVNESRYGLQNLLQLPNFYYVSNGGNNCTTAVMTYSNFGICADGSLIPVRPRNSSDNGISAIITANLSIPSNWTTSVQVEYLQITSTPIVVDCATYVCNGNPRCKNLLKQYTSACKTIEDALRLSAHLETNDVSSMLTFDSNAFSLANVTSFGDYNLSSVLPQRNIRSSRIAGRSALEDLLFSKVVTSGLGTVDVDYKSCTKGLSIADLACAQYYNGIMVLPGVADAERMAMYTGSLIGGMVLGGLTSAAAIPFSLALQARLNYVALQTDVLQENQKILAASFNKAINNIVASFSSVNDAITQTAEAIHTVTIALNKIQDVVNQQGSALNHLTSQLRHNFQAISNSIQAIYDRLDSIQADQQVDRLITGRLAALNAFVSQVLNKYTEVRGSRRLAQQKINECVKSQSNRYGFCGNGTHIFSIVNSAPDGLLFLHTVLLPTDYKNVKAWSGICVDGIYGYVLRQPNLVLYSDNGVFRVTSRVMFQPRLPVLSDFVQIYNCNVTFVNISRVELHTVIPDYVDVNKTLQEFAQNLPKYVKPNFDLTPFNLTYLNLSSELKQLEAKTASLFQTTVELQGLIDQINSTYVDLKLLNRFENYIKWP

[2] = target: T2, HCoV-229E spike protein (Sino Biological 40605-V08B) (HCoV-229E, UniProt P15423 16-1115)
T2 sequence: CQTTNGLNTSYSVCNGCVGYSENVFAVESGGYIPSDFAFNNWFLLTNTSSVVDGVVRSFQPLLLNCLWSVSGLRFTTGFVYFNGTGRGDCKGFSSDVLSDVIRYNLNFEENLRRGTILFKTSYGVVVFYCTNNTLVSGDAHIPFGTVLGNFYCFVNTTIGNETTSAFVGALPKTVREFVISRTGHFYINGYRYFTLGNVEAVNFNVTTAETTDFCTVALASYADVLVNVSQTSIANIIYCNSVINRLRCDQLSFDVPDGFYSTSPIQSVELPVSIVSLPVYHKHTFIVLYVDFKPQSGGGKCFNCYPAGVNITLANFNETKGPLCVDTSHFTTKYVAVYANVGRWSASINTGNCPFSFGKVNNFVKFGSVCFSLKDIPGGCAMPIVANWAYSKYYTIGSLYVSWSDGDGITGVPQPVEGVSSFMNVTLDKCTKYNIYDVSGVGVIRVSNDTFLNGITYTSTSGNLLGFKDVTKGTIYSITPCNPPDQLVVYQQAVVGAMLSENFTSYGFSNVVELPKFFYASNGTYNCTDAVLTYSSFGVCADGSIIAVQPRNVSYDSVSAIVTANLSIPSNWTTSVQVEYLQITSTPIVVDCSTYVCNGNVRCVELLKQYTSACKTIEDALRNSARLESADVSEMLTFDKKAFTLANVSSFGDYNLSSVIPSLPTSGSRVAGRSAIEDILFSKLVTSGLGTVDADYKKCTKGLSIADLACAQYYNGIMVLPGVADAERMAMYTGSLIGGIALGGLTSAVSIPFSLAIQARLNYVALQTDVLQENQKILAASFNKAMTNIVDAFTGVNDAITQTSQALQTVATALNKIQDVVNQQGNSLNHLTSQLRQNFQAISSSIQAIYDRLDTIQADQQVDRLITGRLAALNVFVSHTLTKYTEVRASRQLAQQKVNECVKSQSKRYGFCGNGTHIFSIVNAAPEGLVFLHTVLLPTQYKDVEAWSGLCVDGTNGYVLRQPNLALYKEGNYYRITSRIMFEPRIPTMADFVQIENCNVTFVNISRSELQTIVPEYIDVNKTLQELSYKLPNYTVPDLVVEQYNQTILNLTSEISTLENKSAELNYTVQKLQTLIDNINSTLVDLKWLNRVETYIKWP

[3] = target: T3, SARS-CoV-2 spike S2 subunit, recombinant (SARS-CoV-2, UniProt P0DTC2 686-1213)
T3 construct: domain: S2 subunit

[4] = target: SARS-CoV-2 spike receptor binding domain (RBD), recombinant (SARS-CoV-2, UniProt P0DTC2 319-541)
[5] = target: SARS-CoV-2 spike N-terminal domain (NTD), recombinant (SARS-CoV-2, UniProt P0DTC2 14-305)
MERS-CoV spike protein = target: T4, MERS-CoV spike protein (MERS-CoV, UniProt K9N5Q8 18-1291)
T4 sequence: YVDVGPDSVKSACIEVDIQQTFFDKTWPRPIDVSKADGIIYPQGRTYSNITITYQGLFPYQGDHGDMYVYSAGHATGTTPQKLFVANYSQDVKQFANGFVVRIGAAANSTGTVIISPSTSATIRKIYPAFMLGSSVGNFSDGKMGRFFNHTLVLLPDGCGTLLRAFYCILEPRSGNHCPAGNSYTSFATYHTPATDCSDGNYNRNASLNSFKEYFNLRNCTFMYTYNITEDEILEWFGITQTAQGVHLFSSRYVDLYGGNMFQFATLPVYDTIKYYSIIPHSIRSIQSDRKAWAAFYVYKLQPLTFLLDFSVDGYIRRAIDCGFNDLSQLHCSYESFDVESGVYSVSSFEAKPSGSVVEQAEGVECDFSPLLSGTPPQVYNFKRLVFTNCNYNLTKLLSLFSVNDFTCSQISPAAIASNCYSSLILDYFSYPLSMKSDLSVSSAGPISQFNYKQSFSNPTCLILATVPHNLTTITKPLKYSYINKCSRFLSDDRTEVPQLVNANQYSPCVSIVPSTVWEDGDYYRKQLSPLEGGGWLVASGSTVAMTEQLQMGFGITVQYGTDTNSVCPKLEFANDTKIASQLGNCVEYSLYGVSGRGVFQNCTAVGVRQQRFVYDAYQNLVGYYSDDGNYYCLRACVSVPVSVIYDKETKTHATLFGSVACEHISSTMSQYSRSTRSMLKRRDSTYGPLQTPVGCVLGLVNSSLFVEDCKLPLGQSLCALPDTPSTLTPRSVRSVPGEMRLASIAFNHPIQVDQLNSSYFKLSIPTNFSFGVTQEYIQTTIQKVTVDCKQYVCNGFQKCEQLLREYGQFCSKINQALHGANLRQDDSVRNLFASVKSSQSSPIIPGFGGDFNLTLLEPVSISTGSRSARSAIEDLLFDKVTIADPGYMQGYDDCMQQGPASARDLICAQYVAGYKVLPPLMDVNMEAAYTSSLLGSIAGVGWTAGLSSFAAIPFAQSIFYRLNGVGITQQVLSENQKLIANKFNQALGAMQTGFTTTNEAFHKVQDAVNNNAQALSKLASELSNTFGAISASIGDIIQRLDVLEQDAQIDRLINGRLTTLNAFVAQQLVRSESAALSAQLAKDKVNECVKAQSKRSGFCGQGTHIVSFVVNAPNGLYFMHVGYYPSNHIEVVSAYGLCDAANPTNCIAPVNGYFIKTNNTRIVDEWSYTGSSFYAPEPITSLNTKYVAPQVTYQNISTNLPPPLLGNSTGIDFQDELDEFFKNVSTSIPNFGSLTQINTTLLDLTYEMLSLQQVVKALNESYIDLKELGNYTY

Measured: binding result

B1: COV49-42 (antibody, V domains shown)
VH: QVHLVQSGAEVKNPGVSVKVSCKASGYTFTTSGITWVRQAPGQGLEWMGWISTYNGNTETAQTFQGRVTMTTDTSTSTAYMELRRLRSDDTAVYYCARVQSVATSSNYFFDYWGQGTRVTVSS
VL: DIQMTQSPSSLSASVGDRVTITCRASQTIDRFLNWYQQKPGKAPKLLIYAASRLQSGVPSRFSGSGSGTTYTLTISSLQPEDFATYFCQQSYSDPRALTFGGGTKVEIK
not listed: MERS-CoV spike protein
no binding (tested: 200 µg/mL): all other assays above

B2: COV77-02 (antibody, V domains shown)
VH: QVQLVESGGGVVQPGRSLRLSCAASGFTFSDHGMHWVRQAPGKGLQWVALIWYDGSNMFYRDSVKGRFTISRDNSKNTVYLEMSSLRAEDTALYYCARGTDVWSGLSLDALDVWGQGTMVTVSP
VL: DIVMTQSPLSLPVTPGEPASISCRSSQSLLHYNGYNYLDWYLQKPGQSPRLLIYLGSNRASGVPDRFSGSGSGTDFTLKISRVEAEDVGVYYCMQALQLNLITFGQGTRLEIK
not listed: MERS-CoV spike protein
no binding (tested: 200 µg/mL): all other assays above

B3: COV89-28 (antibody, V domains shown)
VH: EVQLVESGGGLVQPGRSLRLSCAASGFTFDDYAMHWVRQAPGKGLEWVSSISWNSGSIVYADSVTGRCTITRDNAKNSLYLQMNSLRPEDTALYYCAKGYSSSPVVYYMDVWGKGTTVTVSS
VL: DIQMTQSPSSVSASVGDRVTITCRASQGIAGWFAWYQQKPGKAPKLLIYATSSLQRGVPSRFSGSGSATHFTLTITSLQPEDFATYYCQQANIFGPGTKVDIK
not listed: MERS-CoV spike protein
no binding (tested: 200 µg/mL): all other assays above

B4: COV93-04 (antibody, V domains shown)
VH: QLQLQESGSGLVKPSQTLSLTCVVSGDSISSGGYSWSWIRQQPGKALEWIGYIYHSGVTNYNPSLKSRVTISVDRSTNQFSLKLSSVTAADTAVYYCARDGKYNWFDPWGQGILVTVSS
VL: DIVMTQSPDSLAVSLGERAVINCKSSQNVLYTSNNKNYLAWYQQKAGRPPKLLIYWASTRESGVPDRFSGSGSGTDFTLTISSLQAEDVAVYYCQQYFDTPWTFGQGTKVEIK
not listed: MERS-CoV spike protein
no binding (tested: 200 µg/mL): all other assays above

B5: COV89-03 (antibody, V domains shown)
VH: QVQLQESGPGLVKPSETLSLTCTVSGGSIRSNYWSWIRQPPGKRLEWLGYIYYSGSTNYNPSLKSRVTISVDTSKNQFSLNLSSVTAADTAVYYCVREMPYNWIDPWGQGTLVTVSS
VL: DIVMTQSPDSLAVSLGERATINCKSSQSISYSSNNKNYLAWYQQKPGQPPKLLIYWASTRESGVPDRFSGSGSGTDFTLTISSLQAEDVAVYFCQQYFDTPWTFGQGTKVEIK
no binding (tested: 200 µg/mL): [1] | [2] | [4] | [5]

B6: COV57-01 (antibody, V domains shown)
VH: QVQLVESGGGVVQPGRSLRLSCTVSGFTFNNYGMHWVRQAPGKGLEWLAVISYEGSKKFYADSLEGRFSISRDSSKNTLYLQMNSLTIEDTAVYFCAKRNSIFWFGEGRKDAFDVWGQGTRVIVSS
VL: DIQLTQSPSSLSASVGDRVTITCRASQTVDNYLNWYQQLPGKAPKLLIHTASTLQSGVPSRFSATSSGTDFTLTISGLQPDDSATYFCQQSYSVPLTFGGGTKVEIKV
no binding (tested: 200 µg/mL): MERS-CoV spike protein | [1]
